The text below walks through data of publication doi:10.1101/431494.

Experiment [1] addresses Haliangium ochraceum encapsulated ferritin as crystallised (PDB 5N5F) (Haliangium ochraceum) (UniProt D0LZ73). Put plainly: crystal structure.
Experiment [2] addresses Haliangium ochraceum encapsulated ferritin, residues 1-98, C-terminal hexa-histidine tagged variant (Haliangium ochraceum) (UniProt D0LZ73). Put plainly: SDS-PAGE.

As a reminder, the stoichiometry N is the number of molecules, sites or subunits per partner or assembly. Substance “Haliangium ochraceum encapsulated ferritin as crystallised (PDB 5N5F) (from UniProt D0LZ73 1-98) (domain or fragment)” registered a stoichiometry N in experiment [1] of 10.
Substance “Haliangium ochraceum encapsulated ferritin, residues 1-98, C-terminal hexa-histidine tagged variant (from UniProt D0LZ73 1-98) (domain or fragment)” gave a stoichiometry N in experiment [2] of 2.
